Experimental data from patent US20180155451A1 (published 2018).

T1: FcγRIIa R (human, UniProt P12318 34-217)
T1 construct: extracellular domain; Soluble extracellular domain with C-terminal His tag, expressed in FreeStyle293 cells; also called FcgRIIa R; FcγRIIa type R; not shown: His tag attached to the C terminus
T1 sequence (looked up): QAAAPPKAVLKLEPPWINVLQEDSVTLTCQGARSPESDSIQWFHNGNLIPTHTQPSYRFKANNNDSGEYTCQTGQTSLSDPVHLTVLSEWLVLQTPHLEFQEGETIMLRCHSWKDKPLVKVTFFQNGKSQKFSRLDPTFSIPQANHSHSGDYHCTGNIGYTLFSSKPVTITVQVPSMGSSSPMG

T2: FcγRIIb (human, UniProt P31994 43-217)
T2 construct: extracellular domain; Soluble extracellular domain with C-terminal His tag, used as analyte in Biacore; also called FcgRIIb; 2b; not shown: His tag attached to the C terminus
T2 sequence (looked up): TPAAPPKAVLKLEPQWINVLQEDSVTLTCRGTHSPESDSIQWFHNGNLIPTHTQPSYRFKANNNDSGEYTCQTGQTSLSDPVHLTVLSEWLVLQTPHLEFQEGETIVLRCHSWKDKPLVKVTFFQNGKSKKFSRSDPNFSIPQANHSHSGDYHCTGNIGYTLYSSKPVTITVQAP

B1: GpH7-A5/GpH7-B3 variant G237_02A/GpL16-k0 (antibody, human IgG1, kappa)
heavy 1: not shown
heavy 2: not shown
light: DIVMTQSPLSLPVTPGEPASISCQASESLVHSNRNTYLHWYLQKPGQSPQLLIYKVSNRFSGVPDRFSGSGSGTDFTLKISRVEAEDVGVYYCSQNTHVPPTFGQGTKVEIERTVAAPSVFIFPPSDEQLKSGTASVVCLLNNFYPREAKVQWKVDNALQSGNSQESVTEQDSKDSTYSLSSTLTLSKADYEKHKVYACEVTHQGLSSPVTKSFNRGEC
notes: Heterodimerized IgG1; mutation in the GpH7-B3 H chain only; also called He Ab
B2: GpH7-A5/GpH7-B3 variant G237_06M/GpL16-k0 (antibody, human IgG1, kappa)
heavy 1: not shown
heavy 2: not shown
light: B1 light
notes: as for B1
B3: GpH7-A5/GpH7-B3 variant P238_06M/GpL16-k0 (antibody, human IgG1, kappa)
heavy 1: not shown
heavy 2: not shown
light: B1 light
notes: as for B1
B4: GpH7-A5/GpH7-B3 variant L234_09D/GpL16-k0 (antibody, human IgG1, kappa)
heavy 1: not shown
heavy 2: not shown
light: B1 light
notes: as for B1
B5: GpH7-A5/GpH7-B3 variant H268_09D/GpL16-k0 (antibody, human IgG1, kappa)
heavy 1: not shown
heavy 2: not shown
light: B1 light
notes: as for B1
B6: GpH7-A5/GpH7-B3 variant H268_02A/GpL16-k0 (antibody, human IgG1, kappa)
heavy 1: not shown
heavy 2: not shown
light: B1 light
notes: as for B1
B7: GpH7-A5/GpH7-B3 variant S239_01G/GpL16-k0 (antibody, human IgG1, kappa)
heavy 1: not shown
heavy 2: not shown
light: B1 light
notes: as for B1
B8: GpH7-A5/GpH7-B3 variant G237_09D/GpL16-k0 (antibody, human IgG1, kappa)
heavy 1: not shown
heavy 2: not shown
light: B1 light
notes: as for B1
B9: GpH7-A5/GpH7-B3 variant G237_04F/GpL16-k0 (antibody, human IgG1, kappa)
heavy 1: not shown
heavy 2: not shown
light: B1 light
notes: as for B1
B10: GpH7-A5/GpH7-B3 variant G237_10E/GpL16-k0 (antibody, human IgG1, kappa)
heavy 1: not shown
heavy 2: not shown
light: B1 light
notes: as for B1
B11: GpH7-A5/GpH7-B3 variant G237_18N/GpL16-k0 (antibody, human IgG1, kappa)
heavy 1: not shown
heavy 2: not shown
light: B1 light
notes: as for B1
B12: GpH7-A5/GpH7-B3 variant P238_10E/GpL16-k0 (antibody, human IgG1, kappa)
heavy 1: not shown
heavy 2: not shown
light: B1 light
notes: as for B1
B13: GpH7-A5/GpH7-B3 variant S267_03V/GpL16-k0 (antibody, human IgG1, kappa)
heavy 1: not shown
heavy 2: not shown
light: B1 light
notes: as for B1
B14: GpH7-A5/GpH7-B3 variant H268_01G/GpL16-k0 (antibody, human IgG1, kappa)
heavy 1: not shown
heavy 2: not shown
light: B1 light
notes: as for B1
B15: GpH7-A5/GpH7-B3 variant L235_20W/GpL16-k0 (antibody, human IgG1, kappa)
heavy 1: not shown
heavy 2: not shown
light: B1 light
notes: as for B1
B16: GpH7-A5/GpH7-B3 variant L235_09D/GpL16-k0 (antibody, human IgG1, kappa)
heavy 1: not shown
heavy 2: not shown
light: B1 light
notes: as for B1
B17: GpH7-A5/GpH7-B3 variant S239_08L/GpL16-k0 (antibody, human IgG1, kappa)
heavy 1: not shown
heavy 2: not shown
light: B1 light
notes: as for B1
B18: GpH7-A5/GpH7-B3 variant G237_15Y/GpL16-k0 (antibody, human IgG1, kappa)
heavy 1: not shown
heavy 2: not shown
light: B1 light
notes: as for B1
B19: GpH7-A5/GpH7-B3 variant P238_04F/GpL16-k0 (antibody, human IgG1, kappa)
heavy 1: not shown
heavy 2: not shown
light: B1 light
notes: as for B1
B20: GpH7-A5/GpH7-B3 variant P238_15Y/GpL16-k0 (antibody, human IgG1, kappa)
heavy 1: not shown
heavy 2: not shown
light: B1 light
notes: as for B1
B21: GpH7-A5/GpH7-B3 variant P238_08L/GpL16-k0 (antibody, human IgG1, kappa)
heavy 1: not shown
heavy 2: not shown
light: B1 light
notes: as for B1
B22: GpH7-A5/GpH7-B3 variant S239_10E/GpL16-k0 (antibody, human IgG1, kappa)
heavy 1: not shown
heavy 2: not shown
light: B1 light
notes: as for B1
B23: GpH7-A5/GpH7-B3 variant S267_02A/GpL16-k0 (antibody, human IgG1, kappa)
heavy 1: not shown
heavy 2: not shown
light: B1 light
notes: as for B1
B24: GpH7-A5/GpH7-B3 variant G237_19Q/GpL16-k0 (antibody, human IgG1, kappa)
heavy 1: not shown
heavy 2: not shown
light: B1 light
notes: as for B1
B25: GpH7-A5/GpH7-B3 variant L235_15Y/GpL16-k0 (antibody, human IgG1, kappa)
heavy 1: not shown
heavy 2: not shown
light: B1 light
notes: as for B1
B26: GpH7-A5/GpH7-B3 variant G237_20W/GpL16-k0 (antibody, human IgG1, kappa)
heavy 1: not shown
heavy 2: not shown
light: B1 light
notes: as for B1
B27: GpH7-A5/GpH7-B3 variant P238_09D/GpL16-k0 (antibody, human IgG1, kappa)
heavy 1: not shown
heavy 2: not shown
light: B1 light
notes: as for B1
B28: GpH7-A5/GpH7-B3 variant S267_06M/GpL16-k0 (antibody, human IgG1, kappa)
heavy 1: not shown
heavy 2: not shown
light: B1 light
notes: as for B1
B29: GpH7-A5/GpH7-B3 variant G237_08L/GpL16-k0 (antibody, human IgG1, kappa)
heavy 1: not shown
heavy 2: not shown
light: B1 light
notes: as for B1
B30: GpH7-A5/GpH7-B3 variant S239_09D/GpL16-k0 (antibody, human IgG1, kappa)
heavy 1: not shown
heavy 2: not shown
light: B1 light
notes: as for B1
B31: GpH7-A5/GpH7-B3 variant G236_09D/GpL16-k0 (antibody, human IgG1, kappa)
heavy 1: not shown
heavy 2: not shown
light: B1 light
notes: as for B1
B32: GpH7-A5/GpH7-B3 variant T335_19Q/GpL16-k0 (antibody, human IgG1, kappa)
heavy 1: not shown
heavy 2: not shown
light: B1 light
notes: heterodimerized; mutation in one H chain only; also called He Ab
B33: GpH7-A5/GpH7-B3 variant Y296_20W/GpL16-k0 (antibody, human IgG1, kappa)
heavy 1: not shown
heavy 2: not shown
light: B1 light
notes: as for B32
B34: GpH7-A5/GpH7-B3 variant Y300_04F/GpL16-k0 (antibody, human IgG1, kappa)
heavy 1: not shown
heavy 2: not shown
light: B1 light
notes: as for B32
B35: GpH7-A5/GpH7-B3 variant T335_16H/GpL16-k0 (antibody, human IgG1, kappa)
heavy 1: not shown
heavy 2: not shown
light: B1 light
notes: as for B32
B36: GpH7-A5/GpH7-B3 variant V266_06M/GpL16-k0 (antibody, human IgG1, kappa)
heavy 1: not shown
heavy 2: not shown
light: B1 light
notes: as for B32
B37: GpH7-A5/GpH7-B3 variant T335_20W/GpL16-k0 (antibody, human IgG1, kappa)
heavy 1: not shown
heavy 2: not shown
light: B1 light
notes: as for B32
B38: GpH7-A5/GpH7-B3 variant T335_18N/GpL16-k0 (antibody, human IgG1, kappa)
heavy 1: not shown
heavy 2: not shown
light: B1 light
notes: as for B32

target: T3, FcγRIa (human, UniProt P12314 16-292); test: SPR (Biacore); He/Con_1a divided by He/Con_2b (FcγRIa against FcγRIIb)
T3 construct: extracellular domain; Soluble extracellular domain with C-terminal His tag, used as analyte in Biacore; also called FcgRI; 1a; not shown: His tag attached to the C terminus
T3 sequence (P12314 16-292): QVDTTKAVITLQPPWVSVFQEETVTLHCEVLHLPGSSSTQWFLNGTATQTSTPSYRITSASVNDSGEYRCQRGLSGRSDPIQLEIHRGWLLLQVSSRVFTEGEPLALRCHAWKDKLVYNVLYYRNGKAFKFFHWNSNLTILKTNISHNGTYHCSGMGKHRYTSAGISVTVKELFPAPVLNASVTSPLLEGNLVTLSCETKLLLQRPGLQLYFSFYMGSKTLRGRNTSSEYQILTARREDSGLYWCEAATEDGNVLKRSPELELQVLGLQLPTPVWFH

Ia/IIb He_1a/2b	Binder
0.73 ratio	B1
0.63 ratio	B2
0.59 ratio	B3
0.65 ratio	B4
0.46 ratio	B5
0.65 ratio	B6
0.7 ratio	B7
0.38 ratio	B8
0.55 ratio	B9
0.66 ratio	B10
0.46 ratio	B11
0.44 ratio	B12
0.55 ratio	B13
0.75 ratio	B14
0.63 ratio	B15
0.8 ratio	B16

Ia/IIb He_1a/2b	Binder
0.71 ratio	B17
0.52 ratio	B18
0.32 ratio	B19
0.46 ratio	B20
0.49 ratio	B21
0.58 ratio	B22
0.45 ratio	B23
0.77 ratio	B24
0.65 ratio	B25
0.41 ratio	B26
0.43 ratio	B27
0.51 ratio	B28
0.54 ratio	B29
0.49 ratio	B30
0.58 ratio	B31

target: T1, FcγRIIa R; test: SPR (Biacore), antibody captured via antigen peptide, FcγRIIa R as analyte; heterodimerized antibody
Experimental: Analysis of interaction between objective antibody and the FcγR was carried out using Biacore T100 (GE Healthcare). HBS-EP+ (GE Healthcare) was used as the running buffer, and the measurement temperature was set to 25° C. Chips produced by immobilizing the antigen peptide by the amine coupling method to a Series S Sencor Chip CM5 (GE Healthcare), or alternatively, chips produced by allowing preliminarily biotinylated antigen peptides to interact with and immobilize onto a Series S Sensor Chip SA (certified) (GE Healthcare) were used. Antibodies of interest were captured onto an antigen peptide-immobilized chip, and allowed to interact to each FcγR diluted with running buffer. To regenerate and repeatedly use the chip, the antibodies captured on the chip were washed off by reacting 10 mM glycine-HCl, pH 1.5.

He/Con_2aR	Binder
106 % of control (GpH7-A5/GpH7-B3/GpL16-k0 = 100)	B32
110 % of control (GpH7-A5/GpH7-B3/GpL16-k0 = 100)	B33
108 % of control (GpH7-A5/GpH7-B3/GpL16-k0 = 100)	B34
108 % of control (GpH7-A5/GpH7-B3/GpL16-k0 = 100)	B35
150 % of control (GpH7-A5/GpH7-B3/GpL16-k0 = 100)	B36
109 % of control (GpH7-A5/GpH7-B3/GpL16-k0 = 100)	B37
106 % of control (GpH7-A5/GpH7-B3/GpL16-k0 = 100)	B38

target: T3, FcγRIa; test: SPR (Biacore), antibody captured on antigen peptide, FcγR as analyte; relative to GpH7-A5/GpH7-B3/GpL16-k0 = 100

He/Con_1a	Binder
90.3 % of control	B1
81.6 % of control	B2
102 % of control	B3
97.8 % of control	B4
110 % of control	B5
109 % of control	B6
101 % of control	B7
84 % of control	B8
81.5 % of control	B9
75.1 % of control	B10
82.5 % of control	B11
102 % of control	B12
106 % of control	B13
107 % of control	B14
92.8 % of control	B15
84.8 % of control	B16

He/Con_1a	Binder
99.8 % of control	B17
79.6 % of control	B18
101 % of control	B19
101 % of control	B20
101 % of control	B21
105 % of control	B22
109 % of control	B23
82.8 % of control	B24
97.1 % of control	B25
78.4 % of control	B26
96 % of control	B27
106 % of control	B28
79.6 % of control	B29
101 % of control	B30
96.6 % of control	B31

target: T2, FcγRIIb; test: as above

He/Con_2b	Binder
124 % of control	B1
130 % of control	B2
174 % of control	B3
150 % of control	B4
239 % of control	B5
167 % of control	B6
144 % of control	B7
223 % of control	B8
149 % of control	B9
114 % of control	B10
180 % of control	B11
232 % of control	B12
192 % of control	B13
144 % of control	B14
147 % of control	B15
106 % of control	B16

He/Con_2b	Binder
140 % of control	B17
152 % of control	B18
312 % of control	B19
218 % of control	B20
204 % of control	B21
181 % of control	B22
243 % of control	B23
108 % of control	B24
149 % of control	B25
193 % of control	B26
221 % of control	B27
210 % of control	B28
148 % of control	B29
206 % of control	B30
167 % of control	B31
